Measured values reported in US20040091907.

Assays:
[1] = molecular target: T1, GEF-H1 peptide 807-824 with phospho-serine at position 810
T1 chain: RRRSLPAGDALYLSFNPP

[2] = molecular target: T2, GEF-H1 peptide, amino acids 807-824 (unphosphorylated)
T2 chain: RRRSLPAGDALYLSFNPP

[3] = molecular target: GST-Maguin-2-like fusion protein (amino acids 385-555) [GST: P08515]
GST-GEF-H1S (aa763-921) = molecular target: T3, GST-GEF-H1S (aa763-921)
T3 chain: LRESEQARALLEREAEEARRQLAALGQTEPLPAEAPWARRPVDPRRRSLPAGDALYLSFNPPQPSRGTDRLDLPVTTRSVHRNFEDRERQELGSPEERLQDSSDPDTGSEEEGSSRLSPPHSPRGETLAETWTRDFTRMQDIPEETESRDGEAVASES

[4] = molecular target: T4, GEF-H1 peptide, amino acids 55-72
T4 chain: RQSLLGSRRGRSSLSLAK

[5] = molecular target: GST (Glutathione-S-transferase) [GST: P08515]
Sequence of GST (Glutathione-S-transferase) [GST: P08515] (P08515 whole entry): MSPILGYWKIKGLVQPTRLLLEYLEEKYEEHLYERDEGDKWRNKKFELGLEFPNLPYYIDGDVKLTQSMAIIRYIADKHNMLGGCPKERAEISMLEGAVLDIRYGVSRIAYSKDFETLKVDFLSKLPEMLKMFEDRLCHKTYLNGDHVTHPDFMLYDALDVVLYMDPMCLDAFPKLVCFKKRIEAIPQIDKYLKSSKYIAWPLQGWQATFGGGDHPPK

Sequence of GST-Maguin-2-like fusion protein (amino acids 385-555) [GST: P08515] (P08515 whole entry, looked up, the tested form may be a part): as the sequence (P08515 whole entry) above

B1: Glutathione-s-transferase (GST) fused PAK4 (residues 291-591) (protein)
chain: SPQREPQRVSHEQFRAALQLVVDPGDPRSYLDNFIKIGEGSTGIVCIATVRSSGKLVAVKKMDLRKQQRRELLFNEVVIMRDYQHENVVEMYNSYLVGDELWVVMEFLEGGALTDIVTHTRMNEEQIAAVCLAVLQALSVLHAQGVIHRDIKSDSILLTHDGRVKLSDFGFCAQVSKEVPRRKSLVGTPYWMAPELISRLPYGPEVDIWSLGIMVIEMVDGEPPYFNEPPLKAMKMIRDNLPPRLKNLHKVSPSLKGFLDRLLVRDPAQRATAAELLKHPFLAKAGPPASIVPLMRQNRTR
phosphorylation in an in vitro kinase assay [1]: Peptides with phospho-serine at position 810 were no longer substrates for PAK4
Km (in vitro kinase assay) [2]: also a high affinity substrate for PAK4 with a similar Km for PAK4 as the GST-GEF-H1 (793-921) fusion protein
phosphorylation in in vitro kinase assays [2]: are phosphorylated by PAK4
phosphorylation in an in vitro kinase assay [3]: weakly phosphorylated the GST-Maguin-2-like fusion protein
Km (in vitro kinase assay) (GST-GEF-H1S (aa763-921)): Km is the 1 to 5 uM range
phosphorylation in an in vitro kinase reaction (SDS-PAGE, autoradiograph) (GST-GEF-H1S (aa763-921)): The autoradiograph showed phosphorylation of the GEF-H1S polypeptide
phosphorylation in in vitro kinase assays [4]: are phosphorylated by PAK4
phosphorylation in an in vitro kinase assay [5]: PAK4 fails to phosphorylate the GST control
phosphorylation in an in vitro kinase reaction (SDS-PAGE, autoradiograph) [5]: no phosphorylation of the fusion partner GST
